Results from paper PMC9192595, “Dynamic interaction of BRCA2 with telomeric G-quadruplexes underlies telomere replication homeostasis”.

Legend:
POT1OB = biological target: T1, POT1OB (human, UniProt Q9NUX5 10-278); test: EMSA; 100 mM KCl; EMSA: 10 nM probe, 50 mM Tris-HCl pH 7.5, 100 mM KCl, 2 mM b-ME, 10% glycerol, probe pre-incubated 37 C, gel 4 C (RAD51: +1 mM MgCl2, 2 mM ATP); smFRET: 50 mM Tris-HCl pH 7.9, 100 mM KCl, 20 mM NaCl, 1 mM DTT, 0.1 mg/ml BSA, 9% glycerol, 37 C; settings: protein: recombinant, tags: N-MBP, C-6xHis, label: 5' 32P
T1 sequence: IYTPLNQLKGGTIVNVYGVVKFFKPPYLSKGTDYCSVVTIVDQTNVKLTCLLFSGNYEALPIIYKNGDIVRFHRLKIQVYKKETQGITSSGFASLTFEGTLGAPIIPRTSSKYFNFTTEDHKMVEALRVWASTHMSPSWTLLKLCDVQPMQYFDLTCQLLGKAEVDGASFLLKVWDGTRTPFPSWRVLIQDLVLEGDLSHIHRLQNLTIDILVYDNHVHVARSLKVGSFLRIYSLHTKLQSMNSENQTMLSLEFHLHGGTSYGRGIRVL

RAD51 [1] = biological target: T2, RAD51 (human, UniProt Q06609 1-339); test: EMSA; 250 nM RAD51, 2 mM ATP, no BRCA2OB; EMSA: 10 nM probe, 50 mM Tris-HCl pH 7.5, 100 mM KCl, 2 mM b-ME, 10% glycerol, probe pre-incubated 37 C, gel 4 C (RAD51: +1 mM MgCl2, 2 mM ATP); smFRET: 50 mM Tris-HCl pH 7.9, 100 mM KCl, 20 mM NaCl, 1 mM DTT, 0.1 mg/ml BSA, 9% glycerol, 37 C; settings: protein: commercial; label: 5' 32P; intramolecular G4 (dynamic)
BRCA2OB [2] = biological target: T3, BRCA2OB (human, UniProt P51587 2665-3197); test: EMSA; 100 mM KCl; rough estimate, max protein 1 uM; EMSA: 10 nM probe, 50 mM Tris-HCl pH 7.5, 100 mM KCl, 2 mM b-ME, 10% glycerol, probe pre-incubated 37 C, gel 4 C (RAD51: +1 mM MgCl2, 2 mM ATP); smFRET: 50 mM Tris-HCl pH 7.9, 100 mM KCl, 20 mM NaCl, 1 mM DTT, 0.1 mg/ml BSA, 9% glycerol, 37 C; settings: protein: recombinant; tags: N-MBP, C-6xHis; label: 5' 32P; intramolecular G4 (dynamic)
T3 sequence: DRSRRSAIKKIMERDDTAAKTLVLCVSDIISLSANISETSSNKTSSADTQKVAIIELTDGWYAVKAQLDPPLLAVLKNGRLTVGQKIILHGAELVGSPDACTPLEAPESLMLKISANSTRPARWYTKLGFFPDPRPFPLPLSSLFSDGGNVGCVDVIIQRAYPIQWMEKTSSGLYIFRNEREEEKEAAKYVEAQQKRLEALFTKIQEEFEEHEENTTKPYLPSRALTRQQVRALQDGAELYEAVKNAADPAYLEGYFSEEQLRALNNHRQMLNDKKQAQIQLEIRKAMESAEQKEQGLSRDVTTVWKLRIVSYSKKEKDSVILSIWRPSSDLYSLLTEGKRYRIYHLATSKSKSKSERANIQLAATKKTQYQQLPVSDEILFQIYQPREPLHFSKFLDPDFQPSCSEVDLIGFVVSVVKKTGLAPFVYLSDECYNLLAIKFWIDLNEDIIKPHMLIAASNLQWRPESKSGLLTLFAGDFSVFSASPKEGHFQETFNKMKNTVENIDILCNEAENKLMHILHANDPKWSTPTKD

BRCA2OB [3] = biological target: T3, BRCA2OB; test: EMSA; 100 mM KCl; EMSA: 10 nM probe, 50 mM Tris-HCl pH 7.5, 100 mM KCl, 2 mM b-ME, 10% glycerol, probe pre-incubated 37 C, gel 4 C (RAD51: +1 mM MgCl2, 2 mM ATP); smFRET: 50 mM Tris-HCl pH 7.9, 100 mM KCl, 20 mM NaCl, 1 mM DTT, 0.1 mg/ml BSA, 9% glycerol, 37 C; settings: protein: recombinant; tags: N-MBP, C-6xHis; label: 5' 32P; G-triplex / G3:G4
RAD51 [4] = biological target: T2, RAD51; test: EMSA; ATP; facilitated by BRCA2OB, about constant with dose; EMSA: 10 nM probe, 50 mM Tris-HCl pH 7.5, 100 mM KCl, 2 mM b-ME, 10% glycerol, probe pre-incubated 37 C, gel 4 C (RAD51: +1 mM MgCl2, 2 mM ATP); smFRET: 50 mM Tris-HCl pH 7.9, 100 mM KCl, 20 mM NaCl, 1 mM DTT, 0.1 mg/ml BSA, 9% glycerol, 37 C; settings: protein: commercial; label: 5' 32P; intramolecular G4
BRCA2OB [5] = biological target: T3, BRCA2OB; test: EMSA; 100 mM KCl; EMSA: 10 nM probe, 50 mM Tris-HCl pH 7.5, 100 mM KCl, 2 mM b-ME, 10% glycerol, probe pre-incubated 37 C, gel 4 C (RAD51: +1 mM MgCl2, 2 mM ATP); smFRET: 50 mM Tris-HCl pH 7.9, 100 mM KCl, 20 mM NaCl, 1 mM DTT, 0.1 mg/ml BSA, 9% glycerol, 37 C; settings: protein: recombinant; tags: N-MBP, C-6xHis; label: 5' 32P; intramolecular G4
BRCA2OB [6] = biological target: T3, BRCA2OB; test: as above; settings: protein: recombinant; tags: N-MBP, C-6xHis; label: 5' 32P; intramolecular G4; remark: listed apart in the source
BRCA2OB [7] = biological target: T3, BRCA2OB; test: as above; settings: protein: recombinant; tags: N-MBP, C-6xHis; label: 5' 32P; intramolecular G4; remark: listed apart in the source

T2 sequence (Q06609 whole entry): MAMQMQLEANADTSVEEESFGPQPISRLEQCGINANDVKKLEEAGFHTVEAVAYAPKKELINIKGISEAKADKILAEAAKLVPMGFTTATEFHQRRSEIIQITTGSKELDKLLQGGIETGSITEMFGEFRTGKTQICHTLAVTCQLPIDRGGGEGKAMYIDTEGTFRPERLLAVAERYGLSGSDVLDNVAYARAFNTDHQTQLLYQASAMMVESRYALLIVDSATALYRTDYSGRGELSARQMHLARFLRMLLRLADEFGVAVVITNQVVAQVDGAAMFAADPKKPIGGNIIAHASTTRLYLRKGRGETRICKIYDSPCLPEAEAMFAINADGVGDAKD

B1: TelG5 (structured_DNA)
DNA: GGTTAGGGTTAGGGTTAGGGTTAGGGTTAG
binding result (POT1OB; intramolecular G4 (dynamic)): binds
binding result (RAD51 [1]): binds
Kd (BRCA2OB [2]): 4400 nM

B2: TelG5-G3 (structured_DNA)
DNA: GGTTAGGGTTAGGGTTAGTGTTAGGGTTAG
binding signal (BRCA2OB [3]): 3 fold vs TelG5

B3: TelG5TTT (structured_DNA)
DNA: GGTTTGGGTTTGGGTTTGGGTTTGGGTTTG
binding result (RAD51 [4]): binds
binding result (POT1OB; intramolecular G4): no binding
Kd (BRCA2OB [5]): 456 nM
binding signal (BRCA2OB [6]): ~9 fold vs TelG5

B4: TelG5TT (structured_DNA)
DNA: GGTTTGGGTTGGGTTGGGTTGGGTTTG
binding signal (BRCA2OB [7]): 13 fold vs TelG5
